According to patent US20240043558A1 (SHANGHAI HENLIUS BIOTECH, published 2024):

Legend:
[1] = biological target: GPC3 expressed endogenously on HepG2 and Hep3B human hepatoma cells (human) (UniProt P51654); test: flow cytometry on HepG2 cells (endogenous GPC3), MFI
[2] = biological target: GPC3 expressed endogenously on HepG2 and Hep3B human hepatoma cells (human) (UniProt P51654); test: flow cytometry on Hep3B cells (endogenous GPC3), MFI
[3] = biological target: recombinant human GPC3 protein (human) (UniProt P51654); test: ELISA on plate-coated human GPC3, OD 450 nm
Sequence of recombinant human GPC3 protein (human) (P51654 other isoform, or with tags, fused parts or gaps limits assumed, form in doubt): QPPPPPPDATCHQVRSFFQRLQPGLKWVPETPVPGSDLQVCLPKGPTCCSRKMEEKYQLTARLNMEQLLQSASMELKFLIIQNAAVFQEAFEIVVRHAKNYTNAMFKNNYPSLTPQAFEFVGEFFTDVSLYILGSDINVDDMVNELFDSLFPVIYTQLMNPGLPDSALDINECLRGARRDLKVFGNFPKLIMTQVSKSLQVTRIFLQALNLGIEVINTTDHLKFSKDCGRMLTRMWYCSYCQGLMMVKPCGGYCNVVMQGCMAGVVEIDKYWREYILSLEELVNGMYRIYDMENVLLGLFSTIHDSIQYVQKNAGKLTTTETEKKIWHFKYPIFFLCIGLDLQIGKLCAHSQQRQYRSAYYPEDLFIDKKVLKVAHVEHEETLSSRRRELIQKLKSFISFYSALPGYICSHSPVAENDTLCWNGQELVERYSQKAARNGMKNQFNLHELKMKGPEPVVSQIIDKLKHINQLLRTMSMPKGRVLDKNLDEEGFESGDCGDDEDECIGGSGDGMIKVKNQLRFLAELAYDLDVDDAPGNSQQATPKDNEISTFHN

[4] = biological target: T1, GPC3 expressed endogenously on HepG2 and Hep3B human hepatoma cells (human, UniProt P51654 25-554); test: flow cytometry on HepG2 cells (endogenous GPC3), MFI
T1 construct: Endogenous GPC3 of human hepatoma lines; also called HepG2 cells; Hep3B cells
T1 sequence (P51654 other isoform, or with tags, fused parts or gaps limits assumed, form in doubt): as above

Sequence of GPC3 expressed endogenously on HepG2 and Hep3B human hepatoma cells (human) (P51654 other isoform, or with tags, fused parts or gaps limits assumed, form in doubt): as above

| EC50 (read off the curve) [1] [nM] | EC50 (read off the curve) [2] [nM] | EC50 (read off the curve) [3] [µg/mL] | EC50 (read off the curve) [4] [nM] | Molecule |
| --- | --- | --- | --- | --- |
| 2 | 2 | 0.02 | – | HN3 VHH-Fc (Fc fusion) |
| – | – | – | ~0.3 | 1B01 llama-human chimeric bivalent VHH-Fc (Fc fusion, expressed in ExpiCHO; also called Clone 1B01; 1B01 llama VHH fused to human IgG1 Fc; not shown: human IgG1 Fc fused to the C-terminal of the VHH) QVQLQESGGGLVQAGGSLRLSCAAVGLPFSNYAMGWFRQAPGEEREFVSAVSANGGNEYYADSVKDRFTISRDNAKNTVYLRMLSLKLEDTAIYYCATVRRRGGTFTVGSYRGQGTQVTVSS |
